In PMC4784688 (Developmental cell, 2015) one finds Kd data, which are given here for two molecules.

The Kd is the free concentration of one partner at which half of the binding sites on the other are occupied at equilibrium, for simple one-to-one binding. High values mean lower affinity, low ones higher affinity.

The target of assay [1] is T1, soluble purified PTPδ ectodomain fused to the Fc region of human immunoglobulin (UniProt Q64487 21-1266).
T1 sequence (looked up): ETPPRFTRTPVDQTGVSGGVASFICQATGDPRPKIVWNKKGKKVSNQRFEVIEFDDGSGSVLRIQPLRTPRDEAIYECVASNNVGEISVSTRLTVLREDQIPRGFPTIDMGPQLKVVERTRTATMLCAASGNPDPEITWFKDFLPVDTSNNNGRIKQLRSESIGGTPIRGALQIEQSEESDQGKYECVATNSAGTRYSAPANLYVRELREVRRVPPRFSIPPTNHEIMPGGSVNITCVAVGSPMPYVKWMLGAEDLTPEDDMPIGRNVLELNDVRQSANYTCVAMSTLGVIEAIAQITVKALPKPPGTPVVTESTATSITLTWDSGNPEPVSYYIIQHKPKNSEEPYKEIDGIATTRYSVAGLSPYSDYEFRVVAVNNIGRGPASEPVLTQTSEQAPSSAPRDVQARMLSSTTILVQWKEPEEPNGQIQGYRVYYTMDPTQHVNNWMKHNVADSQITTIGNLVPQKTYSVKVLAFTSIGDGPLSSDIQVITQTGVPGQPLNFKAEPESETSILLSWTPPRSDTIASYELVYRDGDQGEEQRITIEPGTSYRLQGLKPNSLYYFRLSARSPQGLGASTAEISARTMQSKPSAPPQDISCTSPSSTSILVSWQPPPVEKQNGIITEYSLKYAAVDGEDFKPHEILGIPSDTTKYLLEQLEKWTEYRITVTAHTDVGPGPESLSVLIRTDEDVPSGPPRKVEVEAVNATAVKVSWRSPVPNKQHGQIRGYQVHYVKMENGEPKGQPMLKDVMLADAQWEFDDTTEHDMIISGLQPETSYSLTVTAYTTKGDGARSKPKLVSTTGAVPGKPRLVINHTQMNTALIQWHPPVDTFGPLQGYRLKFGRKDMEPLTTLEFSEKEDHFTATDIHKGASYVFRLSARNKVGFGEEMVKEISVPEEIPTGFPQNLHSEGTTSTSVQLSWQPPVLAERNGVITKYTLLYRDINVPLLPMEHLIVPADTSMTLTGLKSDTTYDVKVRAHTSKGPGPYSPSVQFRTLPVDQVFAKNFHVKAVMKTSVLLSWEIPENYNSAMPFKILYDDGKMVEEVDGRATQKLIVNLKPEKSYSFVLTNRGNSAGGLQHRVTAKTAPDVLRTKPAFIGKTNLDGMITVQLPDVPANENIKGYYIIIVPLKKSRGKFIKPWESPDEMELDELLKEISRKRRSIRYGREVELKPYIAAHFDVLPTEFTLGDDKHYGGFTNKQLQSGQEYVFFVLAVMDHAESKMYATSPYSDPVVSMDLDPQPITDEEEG
Briefly: immunostaining of cells or tissue.

The target in another assay is T2, Slitrk5 (UniProt O94991).
T2 chain: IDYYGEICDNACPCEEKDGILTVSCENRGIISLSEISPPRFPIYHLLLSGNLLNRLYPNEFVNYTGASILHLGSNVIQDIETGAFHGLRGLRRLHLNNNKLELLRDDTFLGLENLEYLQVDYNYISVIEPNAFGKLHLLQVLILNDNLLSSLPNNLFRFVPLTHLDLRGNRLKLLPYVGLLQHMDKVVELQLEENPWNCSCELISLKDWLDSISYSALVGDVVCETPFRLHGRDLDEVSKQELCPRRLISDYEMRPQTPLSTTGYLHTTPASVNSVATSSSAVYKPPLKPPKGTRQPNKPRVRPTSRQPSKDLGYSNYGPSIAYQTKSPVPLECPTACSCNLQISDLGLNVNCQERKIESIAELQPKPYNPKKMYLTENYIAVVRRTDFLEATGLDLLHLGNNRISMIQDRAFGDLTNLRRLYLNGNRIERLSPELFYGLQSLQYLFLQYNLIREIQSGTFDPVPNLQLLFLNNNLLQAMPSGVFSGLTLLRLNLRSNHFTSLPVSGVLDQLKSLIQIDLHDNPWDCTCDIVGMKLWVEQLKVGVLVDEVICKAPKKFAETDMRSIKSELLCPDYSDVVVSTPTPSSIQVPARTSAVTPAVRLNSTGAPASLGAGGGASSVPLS
Briefly: PTPδ-Fc dissociation from cells.

B1: HA-tagged Slitrk5 (WT, full-length) (natural protein, UniProt Q810B7 41-957, looked up)
chain: IDYYGEICDNACPCEEKDGILTVSCENRGIISLSEISPPRFPIYHLLLSGNLLSRLYPNEFVNYTGASILHLGSNVIQDIETGAFHGLRGLRRLHLNNNKLELLRDDTFLGLENLEYLQVDYNYISVIEPNAFGKLHMLQVLILNDNLLSGLPNNLFRFVPLTHLDLRGNRLKLLPYVGLLQHMDKVVELQLEENPWNCSCELISLKDWLDSISYSALVGDVVCETPFRLHGRDLDEVSKQELCPRKLISDYEMRPQTPLSTTGYLHTTPASVNSVATSSSAVYKPPLKPPKGTRQPNKPRVRPTSRQPSKDLGYSNYGPSIAYQTKSPVPLECPTACTCNLQISDLGLNVNCQERKIESIAELQPKPYNPKKMYLTENYITVVRRTDFLEATGLDLLHLGNNRISMIQDRAFGDLGNLRRLYLNGNRIERLSPELFYGLQSLQYLFLQYNLIREIQAGTFDPVPNLQLLFLNNNQLQAMPSGVFSGLTLLRLNLRGNSFTSLPVSGVLDQLTSLIQIDLHDNPWDCTCDVVGMKLWIEQLKVGVLVDEVICKAPKKFAETYMRSIKSELLCPDYSDVVVSTPTPSSIQVPSRTNAATPAVRLNSTGTPAGLGAGTGASSVPLSVLILSLLLVFIMSVFVAAGLFVLVMKRRKKNQSDHTSTNNSDVSSFNMQYSVYGGGGGGGGGHPHAHVHHRGPALPKVKTPAGHVYEYIPHPLGHMCKNPIYRSREGNSVEDYKDLHELKVTYSSNHHLQQQPPPPPQQPQQQPPPQMQMQPGEEERRESHHLRSPAYSVSTIEPREDLLSPVQDADRFYRGILEPDKHCSTTPAGSSLPEYPKFPCSPAAYTFSPNYDLRRPHQYLHPGAGESRLREPVLYSPPGAVFVEPNRNEYLELKAKLNVEPDYLEVLEKQTTFSQF
Molecule B1 displayed a dissociation constant (Kd) in assay [1] of around 100 nM.

B2: BDNF (protein)
chain: HSDPARRGELSVCDSISEWVTAADKKTAVDMSGGTVTVLEKVPVSKGQLKQYFYETKCNPMGYTKEGCRGIDKRHWNSQCRTTQSYVRALTMDSKKRIGWRFIRIDTSCVCTLTIKRGR
In the assay with Slitrk5, B2 came in with a Kd of around 0.9 nM.
